# Laboratory results: publication PMC3391209, “A Lon-Like Protease with No ATP-Powered Unfolding Activity” (PLoS ONE, 2012)
# Experiments:
# [1] = target: T1, EcLonA (Escherichia coli, UniProt P0A9M0); assay: […]-NMR of phosphate release; colorimetric ATPase assay; format: biochemical; conditions: 37 °C, 50 mM Tris-HCl pH 8.0, 10 mM MgCl2, 10 mM ATP (NMR); positive control
# T1 construct: gene lon; recombinant, expressed and purified as described previously
# [2] = target: T2, MtaLonC (Meiothermus taiwanensis, UniProt C9DRU9); assay: isothermal titration calorimetry, one-site fit; format: binding
# T2 construct: gene lon_2; full-length, 719 residues, C-terminal His tag (pET21a), expressed in E. coli BL21(DE3); homohexamer, monomer 79 kDa
# T2 sequence (C9DRU9 1-719): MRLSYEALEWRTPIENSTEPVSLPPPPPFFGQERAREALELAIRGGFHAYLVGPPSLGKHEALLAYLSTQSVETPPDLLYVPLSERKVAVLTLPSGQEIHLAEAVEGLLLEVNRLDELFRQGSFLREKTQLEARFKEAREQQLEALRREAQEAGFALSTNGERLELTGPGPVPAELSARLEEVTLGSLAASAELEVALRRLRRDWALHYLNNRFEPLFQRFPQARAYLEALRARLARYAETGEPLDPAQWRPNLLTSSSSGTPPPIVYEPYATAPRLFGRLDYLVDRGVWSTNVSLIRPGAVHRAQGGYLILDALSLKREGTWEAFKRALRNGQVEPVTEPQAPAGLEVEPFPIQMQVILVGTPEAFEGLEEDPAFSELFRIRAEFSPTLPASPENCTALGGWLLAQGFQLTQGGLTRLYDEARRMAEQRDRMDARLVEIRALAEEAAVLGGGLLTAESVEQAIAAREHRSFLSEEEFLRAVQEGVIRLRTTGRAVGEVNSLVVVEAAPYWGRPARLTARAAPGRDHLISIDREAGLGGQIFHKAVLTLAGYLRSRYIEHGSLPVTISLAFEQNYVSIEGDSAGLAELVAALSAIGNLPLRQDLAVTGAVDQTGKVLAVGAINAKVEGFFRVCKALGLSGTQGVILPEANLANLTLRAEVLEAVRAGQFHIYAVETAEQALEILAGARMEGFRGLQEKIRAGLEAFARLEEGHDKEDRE
# [3] = target: Lon-like protease MtaLonC from Meiothermus taiwanensis WR-220 (Meiothermus taiwanensis WR-220); assay: SEC; Superose 6; 1 mg/mL, pH 5-8; hexamer formation not dependent on Mg2+ or ATP; aggregates in the void volume when concentrated
# [4] = target: Lon-like protease MtaLonC from Meiothermus taiwanensis WR-220 (Meiothermus taiwanensis WR-220); assay: negative-stain electron microscopy; about 50 µg/ml MtaLonC, 2% uranyl acetate, class averages; hexamer and void-volume fractions from Superose 6
# [5] = target: Lon-like protease MtaLonC from Meiothermus taiwanensis WR-220 (Meiothermus taiwanensis WR-220); assay: AUC; sedimentation equilibrium (4,000-6,000 r.p.m.) and sedimentation velocity (20,000 rpm), 20°C, 20 mM sodium citrate pH 5.5, 100 mM NaCl, 1 mM DTT, 7.8 µM protein
# T1 sequence (P0A9M0 2-784): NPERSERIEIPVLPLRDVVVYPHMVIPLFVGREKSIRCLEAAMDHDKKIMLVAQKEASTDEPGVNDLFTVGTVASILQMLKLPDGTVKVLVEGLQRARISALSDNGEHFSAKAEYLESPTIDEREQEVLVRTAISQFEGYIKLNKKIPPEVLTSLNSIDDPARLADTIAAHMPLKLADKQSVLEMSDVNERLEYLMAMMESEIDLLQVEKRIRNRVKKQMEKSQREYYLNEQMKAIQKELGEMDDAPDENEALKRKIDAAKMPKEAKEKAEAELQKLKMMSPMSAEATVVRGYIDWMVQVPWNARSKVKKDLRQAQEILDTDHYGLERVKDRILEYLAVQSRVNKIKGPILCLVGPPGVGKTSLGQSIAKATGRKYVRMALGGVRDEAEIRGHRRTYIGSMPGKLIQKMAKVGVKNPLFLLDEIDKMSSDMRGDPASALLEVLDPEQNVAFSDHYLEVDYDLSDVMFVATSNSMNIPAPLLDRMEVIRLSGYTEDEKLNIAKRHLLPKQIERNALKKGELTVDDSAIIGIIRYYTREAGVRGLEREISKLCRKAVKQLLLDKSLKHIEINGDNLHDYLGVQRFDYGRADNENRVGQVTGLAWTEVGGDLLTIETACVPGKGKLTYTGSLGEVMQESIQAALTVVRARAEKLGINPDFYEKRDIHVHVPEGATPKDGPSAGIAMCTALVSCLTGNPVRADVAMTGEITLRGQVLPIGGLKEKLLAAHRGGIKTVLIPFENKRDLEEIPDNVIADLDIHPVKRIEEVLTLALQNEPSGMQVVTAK
compound,measurement,setting,value
Nc1ncnc2c1ncn2[C@@H]1O[C@H](COP(=O)(O)OP(=O)(O)OP(=O)(O)O)[C@@H](O)[C@H]1O [ATP],31P-NMR of phosphate release; colorimetric ATPase assay,[1],incubation of an excess amount of ATP with EcLonA resulted in hydrolysis of ATP
Nc1ncnc2c1ncn2[C@@H]1O[C@H](CO[P@](=O)(O)O[P@](=O)(O)O[P@@](=O)(O)S)[C@@H](O)[C@H]1O [ATPγS],Kd,[2],7.8 µM
Lon-like protease MtaLonC from Meiothermus taiwanensis WR-220 (enzyme),stoichiometry N,[3],6
same,stoichiometry N,[4],6
same,stoichiometry N,[5],6
